Measured values as given in the RNAGym collection of RNA variant scans (doi:10.1073/pnas.2313332121).
This sample holds only a part of the variants without activity.

B1: TPR 5TU (parent)
chain: GGAUCUUCUCGAUCUAACAAAAAAGACAAAUCUGCCACAAAGCUUGAGAGCAUCUUCGGAUGCAGAGGCGGCAGCCUUCGGUGGCGCGAUAGCGCCAACGUUCUCAACUAUGACACGCAAAACGCGUGCUCCGUUGAAUGGAGUUUAUCAUG

Variants of: B1
Experiment: polymerase ribozyme fitness, log enrichment relative to wild type (log ratio); higher = more active; in vitro selection for triplet polymerase activity
Summary of the method: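 Both subunits of a heterodimeric triplet polymerase ribozyme were given their own mutant library, built by PCR and transcribed. Each library was annealed with a biotinylated primer, the partner subunit and triplets, incubated frozen at −7 °C, and its extended constructs gel-excised, captured on streptavidin beads and amplified by RT-PCR, all in one round done in triplicate. Fitness is the logarithm of genotype enrichment relative to wild-type enrichment, with replicates averaged by inverse-variance weighting. That logarithm is base 2, and Illumina-sequenced genotypes needed ≥10 input reads and ≥1 read per output.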

Row | Variant | polymerase ribozyme fitness (log ratio)
1 | A40C G141U | 1.43
2 | A39C U55A C149U | -3.62
3 | A39C G70C A97G | ≤ -4.2
4 | A40G C54G G74A G83C C105G | ≤ -4.2
5 | A40C G65A A73U A98U | ≤ -4.2
6 | A39G G81A C96G | -3.28
7 | A39C G86U A91C A150U | ≤ -4.2
8 | A41C C123U G126A U135G | -3.4
9 | A41C U53C A122C C123A G141U U144G | -3.18
10 | A39C G48U G68C G80C C96U U101G A106U | ≤ -4.2
11 | A39U G84A C123G | -2.9
12 | A40C A52G | 0.882
13 | A40U G83A C95A A115U G128U C129A | ≤ -4.2
14 | A40C A138G U144G | -3.92
15 | A40U G86U | -1.77
16 | A41C G50A A89U A113U A115G U146A | -4.05
17 | C38U G80U U134G A142C G152U | -3.64
18 | A41C G59A C69A G84A A107U A137U | ≤ -4.2
19 | A41G C57U A89U | 0.785
20 | A41G C103G | -1.94
21 | A40C A52U C57U G92C C95U C105U A106C U109C A138G | ≤ -4.2
22 | A40G G84A C85G A106G | ≤ -4.2
23 | A41C G92A | -3.32
24 | A40C C54A G59C C87U | -2.96

Row | Variant | polymerase ribozyme fitness (log ratio)
25 | A40G G84C U109G A119U U139A G140U G152U | ≤ -4.2
26 | A41C A49G C51A G71U C93A C95U U111G | ≤ -4.2
27 | A39U G70C G80U C87G C93U U134C | ≤ -4.2
28 | A41C G92U C103U C123G | -1.2
29 | A39U C93U U144C | -3.54
30 | A40U A41C A60G A98U A150U | 0.591
31 | A40C U55A G86C A115C | -3.79
32 | C38U C93A | -2.86
33 | A41C G42A G59C G68A C95U | ≤ -4.2
34 | A40G C51U U56A U78A G83C | ≤ -4.2
35 | C38U U56A C63A G117C A121U | 0.398
36 | A41C A49C U56A G67C C76G C87A | ≤ -4.2
37 | A41C G50A C96U | -1.93
38 | A40U U44A C57U C76G A91U U134C G136C | ≤ -4.2
39 | C38U G67A C69G G94A | ≤ -4.2
40 | A40C G88A A91G U144G | ≤ -4.2
41 | C38U C85U U127A | -3.87
42 | A40U U104C C108A | ≤ -4.2
43 | A39C G83U | -2.83
44 | A41G G58U G59C | -0.488
45 | A40G A41G C63U C76A G83C G152U | ≤ -4.2
46 | A40G U56A C99U | -2.66
47 | A41G C63G G74A C75U G92U U144C | -3.87
48 | A40C A89U A137C | -3.94

Row | Variant | polymerase ribozyme fitness (log ratio)
49 | A40U G50C A91G U104A | ≤ -4.2
50 | A39G C69G C93U C103G C108U C116U A137C | ≤ -4.2
51 | A39G U53C U77G A113C C116A | ≤ -4.2
52 | A41C U56A G70U C75G C93U C132U G136C | ≤ -4.2
53 | A40G U45A U55G G68C A91C U102G G126A C149G | ≤ -4.2
54 | A41C C93A A97C | -3.96
55 | A39C A49U C69U C85A C105U | ≤ -4.2
56 | A41G G58A U82G U144A U145C | 0.156
57 | A41G C54A U56G C57U G84U C99G U109C U146C | ≤ -4.2
58 | A41G C54U | 0.979
59 | A39U C87U G133U U135G | ≤ -4.2
60 | A40C A89U C96U C114U G128C U145G | ≤ -4.2
61 | A40U U145A | -0.163
62 | A40U A52U G126U U135G A142G | ≤ -4.2
63 | A41G G65A | -0.45
64 | A40U A52G G65A G70A G128U | ≤ -4.2
65 | A40G C87U A115G | -3.19
66 | A40G A49C U53A | ≤ -4.2
67 | A39G C57G | -2.43
68 | A40C C57A G68A G86U A121U | ≤ -4.2
69 | A40U G48C A64U G83A G143A | ≤ -4.2
70 | A40C G42U C51G G67A C76A G86C A89U U127G | ≤ -4.2
71 | A40U U82G G84U C93A C99A U109G G136U | ≤ -4.2
72 | A41C C57U | -0.124

Row | Variant | polymerase ribozyme fitness (log ratio)
73 | A39U A52U G83A U109G | ≤ -4.2
74 | A40U G84U G136U | -3.66
75 | A39U U61C | -4.04
76 | A41C G46A U82A C116G | -3.58
77 | A41C G80U C95A | -1.46
78 | A41C U61G C79U G84C | ≤ -4.2
79 | A40C C54U A64U U78A G88C A150G | ≤ -4.2
80 | A41C C76A C85G C99A | ≤ -4.2
81 | A39G G84A | -1.84
82 | A40C C51U U55G G74C A89C G92A | ≤ -4.2
83 | A41C C57A G92A C93A C105U A115C G124A U144A | ≤ -4.2
84 | C38U C76U U77G G92A C118A C129U | ≤ -4.2
85 | A41C A91G G141U | -2.56
86 | C38U G68U G94A | ≤ -4.2
87 | A41G A52G U77G C87U G100C C103G A138G | ≤ -4.2
88 | A39U G46U A47C A52C C87U A98G U104G C114A C125U | ≤ -4.2
89 | A41G C93A A147C | -1.52
90 | A41C U55G G81A C85U | -0.432
91 | A39U G94U A122U G143A A147C | ≤ -4.2
92 | A40U A41U C57U C108U G143U | ≤ -4.2
93 | C38U G84U C123U | -0.916
94 | A39C C54A G94A C123U U139A | ≤ -4.2
95 | A41C A52C C114U | -3.97
96 | A40C G42U | ≤ -4.2

Row | Variant | polymerase ribozyme fitness (log ratio)
97 | C38U G59C C95U A98U C103G U148G | ≤ -4.2
98 | C38U G83U | -0.752
99 | A39U G50A G67U G71C G84A | ≤ -4.2
100 | A40U A147G | -3.6
101 | A39C G65A A66C C85A G88C G140U | ≤ -4.2
102 | C38U G58C G65A A119G A147C | -2.82
103 | A41C C93G C105U | -2.84
104 | A39U U56A C116U | -2.74
105 | A41C C54U G141C | -1.43
106 | A41C U53A C63U C76A | ≤ -4.2
107 | A39U U55G G81U C103A | ≤ -4.2
108 | A40C A150C | -3.94
109 | A40U G152A | -2.57
110 | A41C C63G G86A A115C | -2.61
111 | A39G G84A G136U | -4.02
112 | A40C A52C U53A A73U C76A G83C U102A | ≤ -4.2
113 | A40U G58A | 0.274
114 | A40C U44A U55A C57A C76A | ≤ -4.2
115 | C38U G65U G71U U90C C114U U135C U146A | ≤ -4.2
116 | A41C C76G C96U | ≤ -4.2
117 | A40U C54U G70C G117U G128C A137G | ≤ -4.2
118 | A39U G70A G88A U127A U144A | ≤ -4.2
119 | A39G G46A U56A C93U C108A | ≤ -4.2
120 | A40U C87G G133U | ≤ -4.2

Row | Variant | polymerase ribozyme fitness (log ratio)
121 | A41C C87U A142G | -1.45
122 | A41C C87U U102A U109C G136A A138U | ≤ -4.2
123 | A40C G50A A91G A147C U151A | ≤ -4.2
124 | C38U C95A A120G G141C | -1.16
125 | A40C C87G C105G | -4.19
126 | A40U C57U G68C A107G C108U U139A | ≤ -4.2
127 | A40G U56A G84A A91C C95G G100U | ≤ -4.2
128 | C38U C85U C131G | -3.56
129 | C38U U56A A60G U78A C79G C85A A119C U135G U151A | ≤ -4.2
130 | A39G A49G C69U C123G G140C G141U | ≤ -4.2
131 | A40G C85A G133U | ≤ -4.2
132 | C38U G68C G88A A147C | ≤ -4.2
133 | A41C G42U A73U G83U U102G G124C A150G | ≤ -4.2
134 | A39C U61A C87U G94U U101C A147U | ≤ -4.2
135 | A40U C93U | -0.794
136 | A39G U144C | -2.67
137 | A39C C76A U101G C114U C125G U145G | -3.83
138 | C38U G86A A89C C95G G112C | ≤ -4.2
139 | A39G G70C G92C U135G U145G U148A | ≤ -4.2
140 | A40U C103A U139G U146A | -2.67
141 | A39G U53C A91U C95G | ≤ -4.2
142 | A40U A113C | -3.79
143 | A39U U77A U78G C85G G86A | ≤ -4.2
144 | A41C U53A | -1.22

Row | Variant | polymerase ribozyme fitness (log ratio)
145 | A40G C75U C93U A97U | ≤ -4.2
146 | A39U A89G | -2.99
147 | A39U A49G G58A G65A U111G A150G | ≤ -4.2
148 | A40C G68U C99A U130G | ≤ -4.2
149 | A40U U56G C72U A91G | -3.52
150 | A40G U55A | -2
151 | A39C G42U C43A G92U U127A A150G | -4.19
152 | A39U A52C C57U G58C | -3
153 | A40C G92A A97U | -3.34
154 | A41C A66G G70A A91U C93U C96G | ≤ -4.2
155 | A40G G59A G68U | ≤ -4.2
156 | A40U C114G | -3.04
157 | A41C G81A G92U G136U | -3.13
158 | A41C | -0.379
159 | A41G | 0.583
160 | A41C G81C U82C A97C | -0.593
161 | C38U U61C C87U C96G G136U | ≤ -4.2
162 | C38U G50U G80C C85U | ≤ -4.2
163 | A39U C43A U44A U56G G59C G94A C103G U144A | ≤ -4.2
164 | A40G U109G | -3.14
165 | A39G G58A | -1.68
166 | A39U C69U U82C C96U | -2.44
167 | A39U U104G | -3.71
